Measurements: patent publication US9284543B2, “Neutral active soluble truncated PH20 polypeptides and uses thereof” (Halozyme, Inc., priority 2008, dated 2016)

B1: SPAM1-DGVC: C-terminally truncated human PH20, precursor 464 aa (SEQ ID NO:36), mature 429 aa (SEQ ID NO:88) (protein, listed as Homo sapiens)
chain 1: MGVLKFKHIFFRSFVKSSGVSQIVFTFLLIPCCLTLNFRAPPVIPNVPFLWAWNAPSEFCLGKFDEPLDMSLFSFIGSPRINATGQGVTIFYVDRLGYYPYIDSITGVTVNGGIPQKISLQDHLDKAKKDITFYMPVDNLGMAVIDWEEWRPTWARNWKPKDVYKNRSIELVQQQNVQLSLTEATEKAKQEFEKAGKDFLVETIKLGKLLRPNHLWGYYLFPDCYNHHYKKPGYNGSCFNVEIKRNDDLSWLWNESTALYPSIYLNTQQSPVAATLYVRNRVREAIRVSKIPDAKSPLPVFAYTRIVFTDQVLKFLSQDELVYTFGETVALGASGIVIWGTLSIMRSMKSCLLLDNYMETILNPYIINVTLAAKMCSQVLCQEQGVCIRKNWNSSDYLHLNPDNFAIQLEKGGKFTVRGKPTLEDLEQFSEKFYCSCYSTLSCKEKADVKDTDAVDVCIADGVC
chain 2: LNFRAPPVIPNVPFLWAWNAPSEFCLGKFDEPLDMSLFSFIGSPRINATGQGVTIFYVDRLGYYPYIDSITGVTVNGGIPQKISLQDHLDKAKKDITFYMPVDNLGMAVIDWEEWRPTWARNWKPKDVYKNRSIELVQQQNVQLSLTEATEKAKQEFEKAGKDFLVETIKLGKLLRPNHLWGYYLFPDCYNHHYKKPGYNGSCFNVEIKRNDDLSWLWNESTALYPSIYLNTQQSPVAATLYVRNRVREAIRVSKIPDAKSPLPVFAYTRIVFTDQVLKFLSQDELVYTFGETVALGASGIVIWGTLSIMRSMKSCLLLDNYMETILNPYIINVTLAAKMCSQVLCQEQGVCIRKNWNSSDYLHLNPDNFAIQLEKGGKFTVRGKPTLEDLEQFSEKFYCSCYSTLSCKEKADVKDTDAVDVCIADGVC
modifications: HuPH20 precursor 1-464; Mature HuPH20 36-464
B2: SPAM1-IADG: C-terminally truncated human PH20, precursor 462 aa (SEQ ID NO:37), mature 427 aa (SEQ ID NO:89) (protein, listed as Homo sapiens)
chain 1: MGVLKFKHIFFRSFVKSSGVSQIVFTFLLIPCCLTLNFRAPPVIPNVPFLWAWNAPSEFCLGKFDEPLDMSLFSFIGSPRINATGQGVTIFYVDRLGYYPYIDSITGVTVNGGIPQKISLQDHLDKAKKDITFYMPVDNLGMAVIDWEEWRPTWARNWKPKDVYKNRSIELVQQQNVQLSLTEATEKAKQEFEKAGKDFLVETIKLGKLLRPNHLWGYYLFPDCYNHHYKKPGYNGSCFNVEIKRNDDLSWLWNESTALYPSIYLNTQQSPVAATLYVRNRVREAIRVSKIPDAKSPLPVFAYTRIVFTDQVLKFLSQDELVYTFGETVALGASGIVIWGTLSIMRSMKSCLLLDNYMETILNPYIINVTLAAKMCSQVLCQEQGVCIRKNWNSSDYLHLNPDNFAIQLEKGGKFTVRGKPTLEDLEQFSEKFYCSCYSTLSCKEKADVKDTDAVDVCIADG
chain 2: LNFRAPPVIPNVPFLWAWNAPSEFCLGKFDEPLDMSLFSFIGSPRINATGQGVTIFYVDRLGYYPYIDSITGVTVNGGIPQKISLQDHLDKAKKDITFYMPVDNLGMAVIDWEEWRPTWARNWKPKDVYKNRSIELVQQQNVQLSLTEATEKAKQEFEKAGKDFLVETIKLGKLLRPNHLWGYYLFPDCYNHHYKKPGYNGSCFNVEIKRNDDLSWLWNESTALYPSIYLNTQQSPVAATLYVRNRVREAIRVSKIPDAKSPLPVFAYTRIVFTDQVLKFLSQDELVYTFGETVALGASGIVIWGTLSIMRSMKSCLLLDNYMETILNPYIINVTLAAKMCSQVLCQEQGVCIRKNWNSSDYLHLNPDNFAIQLEKGGKFTVRGKPTLEDLEQFSEKFYCSCYSTLSCKEKADVKDTDAVDVCIADG
modifications: HuPH20 precursor 1-462; Mature HuPH20 36-462
B3: SPAM1-VCID: C-terminally truncated human PH20, precursor 466 aa (SEQ ID NO:34), mature 431 aa (SEQ ID NO:86) (protein, listed as Homo sapiens)
chain 1: MGVLKFKHIFFRSFVKSSGVSQIVFTFLLIPCCLTLNFRAPPVIPNVPFLWAWNAPSEFCLGKFDEPLDMSLFSFIGSPRINATGQGVTIFYVDRLGYYPYIDSITGVTVNGGIPQKISLQDHLDKAKKDITFYMPVDNLGMAVIDWEEWRPTWARNWKPKDVYKNRSIELVQQQNVQLSLTEATEKAKQEFEKAGKDFLVETIKLGKLLRPNHLWGYYLFPDCYNHHYKKPGYNGSCFNVEIKRNDDLSWLWNESTALYPSIYLNTQQSPVAATLYVRNRVREAIRVSKIPDAKSPLPVFAYTRIVFTDQVLKFLSQDELVYTFGETVALGASGIVIWGTLSIMRSMKSCLLLDNYMETILNPYIINVTLAAKMCSQVLCQEQGVCIRKNWNSSDYLHLNPDNFAIQLEKGGKFTVRGKPTLEDLEQFSEKFYCSCYSTLSCKEKADVKDTDAVDVCIADGVCID
chain 2: LNFRAPPVIPNVPFLWAWNAPSEFCLGKFDEPLDMSLFSFIGSPRINATGQGVTIFYVDRLGYYPYIDSITGVTVNGGIPQKISLQDHLDKAKKDITFYMPVDNLGMAVIDWEEWRPTWARNWKPKDVYKNRSIELVQQQNVQLSLTEATEKAKQEFEKAGKDFLVETIKLGKLLRPNHLWGYYLFPDCYNHHYKKPGYNGSCFNVEIKRNDDLSWLWNESTALYPSIYLNTQQSPVAATLYVRNRVREAIRVSKIPDAKSPLPVFAYTRIVFTDQVLKFLSQDELVYTFGETVALGASGIVIWGTLSIMRSMKSCLLLDNYMETILNPYIINVTLAAKMCSQVLCQEQGVCIRKNWNSSDYLHLNPDNFAIQLEKGGKFTVRGKPTLEDLEQFSEKFYCSCYSTLSCKEKADVKDTDAVDVCIADGVCID
modifications: HuPH20 precursor 1-466; Mature HuPH20 36-466
B4: SPAM1-GVCI: C-terminally truncated human PH20, precursor 465 aa (SEQ ID NO:35), mature 430 aa (SEQ ID NO:87) (protein, listed as Homo sapiens)
chain 1: MGVLKFKHIFFRSFVKSSGVSQIVFTFLLIPCCLTLNFRAPPVIPNVPFLWAWNAPSEFCLGKFDEPLDMSLFSFIGSPRINATGQGVTIFYVDRLGYYPYIDSITGVTVNGGIPQKISLQDHLDKAKKDITFYMPVDNLGMAVIDWEEWRPTWARNWKPKDVYKNRSIELVQQQNVQLSLTEATEKAKQEFEKAGKDFLVETIKLGKLLRPNHLWGYYLFPDCYNHHYKKPGYNGSCFNVEIKRNDDLSWLWNESTALYPSIYLNTQQSPVAATLYVRNRVREAIRVSKIPDAKSPLPVFAYTRIVFTDQVLKFLSQDELVYTFGETVALGASGIVIWGTLSIMRSMKSCLLLDNYMETILNPYIINVTLAAKMCSQVLCQEQGVCIRKNWNSSDYLHLNPDNFAIQLEKGGKFTVRGKPTLEDLEQFSEKFYCSCYSTLSCKEKADVKDTDAVDVCIADGVCI
chain 2: LNFRAPPVIPNVPFLWAWNAPSEFCLGKFDEPLDMSLFSFIGSPRINATGQGVTIFYVDRLGYYPYIDSITGVTVNGGIPQKISLQDHLDKAKKDITFYMPVDNLGMAVIDWEEWRPTWARNWKPKDVYKNRSIELVQQQNVQLSLTEATEKAKQEFEKAGKDFLVETIKLGKLLRPNHLWGYYLFPDCYNHHYKKPGYNGSCFNVEIKRNDDLSWLWNESTALYPSIYLNTQQSPVAATLYVRNRVREAIRVSKIPDAKSPLPVFAYTRIVFTDQVLKFLSQDELVYTFGETVALGASGIVIWGTLSIMRSMKSCLLLDNYMETILNPYIINVTLAAKMCSQVLCQEQGVCIRKNWNSSDYLHLNPDNFAIQLEKGGKFTVRGKPTLEDLEQFSEKFYCSCYSTLSCKEKADVKDTDAVDVCIADGVCI
modifications: HuPH20 precursor 1-465; Mature HuPH20 36-465

Tested on: CHO-S cells
Assay: Western blot analysis of PH20 expression in media and cells after transient expression
Type: cell-based, Chinese Hamster
Conditions: media versus cells
Procedure: The mutant PH20-HZ24 plasmids generated in Example 1 were transiently […] into CHO—S cells (derived from Chinese Hamster Ovary CHO K1 cells) using GeneJuice® (Novagen) according to the manufacturer's instructions. In short, the CHO—S cells were grown in CD CHO medium supplemented with L-glutamine. Prior to transfection, the CHO—S cells were plated in 6-well plates, with approximately 5×10^5 cells per well, and grown overnight at 37° C. with 5% CO2. The medium was then removed and the CHO—S cells were washed 2 times with 1 mL serum-free medium. GeneJuice® was mixed with serum-free media followed by the addition of 2 μg mutant-HZ24 DNA. After incubating at room temperature for 5-15 minutes, the GeneJuice®/DNA mixture was added dropwise to an individual well containing the washed CHO—S cells. After 4 hours, the medium was replaced with 1 mL CD-CHO medium supplemented with L-glutamine and the cells were incubated for 72 hours at 37° C. with 5% CO2. Following expression, the media and cells were harvested separately.
The mutant PH20-HZ24 plasmids generated in Example 1 were transiently […] into CHO—S cells using GeneJuice® (Novagen) according to the manufacturer's instructions. […]
In this example, following transient expression, as described in Example 2 above, the media and cells were harvested separately and analyzed for PH20 expression and solublility by Western blot analysis. Solubility of the C-terminus truncation mutants was determined by examining whether the expressed protein was present in the growth media or in the cells. […] Cells expressing these mutants were treated with phosphoinositol-phospholipase C (PI-PLC), which cleaves the GPI-anchor allowing the release of soluble protein into the media, and the presence of PH20 in the resulting media and cells was determined by Western blot analysis.
Non-reduced samples were run on a 4-20% Tris-Glycine gel and transferred to PVDF membrane using iBlot (Invitrogen). For the Western blot, rabbit anti-PH20 IgG (0.5 μg/mL) was used as the primary antibody and HRP-conjugated goat anti-rabbit IgG (0.1 ng/mL, Cat#DC03L, EMD) was used as the secondary antibody. Evidence of expression is determined by a band at approximately 66 kDa, corresponding to recombinant human PH20 hyaluronidase.

| Molecule | Expressed in Media |
| --- | --- |
| B1 | YES |
| B2 | YES |
| B3 | YES |
| B4 | YES |

Tested on: not listed separately
Assay: Microtiter hyaluronidase activity assay with biotinylated-hyaluronic acid
Type: biochemical
Conditions: Table 6; 72 hour post transfection supernatant; pH 5.5
Procedure: In Example 4, the hyaluronidase activity of truncated human PH20 hyaluronidase is determined using biotinylated hyaluronic acid. The free carboxyl groups on the glucuronic acid residues of hyaluronic acid are biotinylated, and the biotinylated hyaluronic acid substrate is covalently coupled to a microtiter plate. Following incubation with hyaluronidase, the residual biotinylated hyaluronic acid substrate is detected using an avidin-peroxidase reaction, and compared to that obtained following reaction with hyaluronidase standards of known activity. […] The sensitivity permits rapid measurement of hyaluronidase activity from cultured cells and biological samples with an inter-assay variation of less than 10%.
In this example, the human PH20 hyaluronidase carboxy-terminus deletion mutants were tested for their PH20 hyaluronidase activity using a microtiter assay with biotinylated-hyaluronic acid (biotinylated-HA or bHA). The human PH20 hyaluronidase carboxy-terminus deletion mutants were tested for hyaluronidase activity at both pH 7.4 and pH 5.5.
In short, a 4×BH 96-well plate was coated with biotinylated-HA (1.1 MDa). The 72 hour post transfection supernatant from cells transfected with human PH20 hyaluronidase carboxy-terminus deletion mutants was diluted in buffer at either pH 7.4 or pH 5.5 and added to individual wells of the plate and allowed to incubate at 37° C. for 90 minutes. The reaction was terminated by addition of 4M guanidine HCl. The wells were washed 4× with Phosphate Buffered Saline with Tween20 (PBST) to remove any digested biotinylated-HA followed by addition of streptavidin-HRP for 1 hour at room temperature. The wells were washed 4× with PBST and the plate was developed with TMB. The plate was read at 450 nm using an ELISA plate reader. Hyaluronidase activity (in Units/mL) was determined by interpolating the measured absorbance at 450 nm with a hyaluronidase reference standard curve. Full length mature human PH20 hyaluronidase and untransfected CHO cells were used as positive and negative controls.

| pH 5.5 Activity [Units/ml] | Molecule |
| --- | --- |
| 0.045 | B1 |
| 0.00225 | B2 |
| 0.2115 | B3 |
| 0.468 | B4 |

Same assay, conditions: Table 6; 72 hour post transfection supernatant; pH 7.4

| pH 7.4 Activity [Units/ml] | Molecule |
| --- | --- |
| 0 | B1 |
| 0 | B2 |
| 0 | B3 |
| 0.441 | B4 |
